# US20210386829A1, “COMPOSITIONS AND METHODS FOR MODULATING CGRP SIGNALING TO REGULATE INNATE LYMPHOID CELL INFLAMMATORY RESPONSES” (The Broad Institute, Inc., priority 2018, published 2021)
# Tested on: lung-resident ILCs
# Assay: SMART-Seq2 plate-based scRNA-seq of lung-resident ILCs from PBS-, IL-25- or IL-33-treated mice, differential gene expression by logistic regression (Tables 3, 4)
# Type: in vivo, mouse
# Excerpt: Mice and in vivo ILC activation. C57B1/6J mice were purchased from the Jackson Laboratory. Nmur1-LacZ reporter mice with a LacZ cassette knocked into the Nmur1 locus were rederived from Nmur1^tm1.1(KOMP)Vlcg sperm obtained from the trans-NIH Knock-Out Mouse Project (KOMP) Repository. NMU-deficient mice (NMU-KO) were rederived from B6.129S2-Nmu<tm1Mko> embryos from the RIKEN BioResource Center. For experiments with Nmur1-LacZ (Nmur1-KO) and NMU-KO mice, littermates that were either homozygous or heterozygous for the wild type allele were used as controls. Mice were housed under specific-pathogen-free conditions. For experiments, mice were matched for sex and age, and most mice were 6-10 weeks old. Where indicated, mice were anesthetized with Isoflurane and treated intranasally with the indicated stimuli (500 ng IL-25, 500 ng IL-33, or 20 μg Neuromedin U) daily for three consecutive days. The total administered volume was 20 μl for all conditions. Mice were randomly assigned to treatment groups after matching for sex and age. […] Mice were treated intranasally with 10 μg HDM on day 0, 7, 8, and 9, prior to sacrifice on day 10. All experiments were conducted in accordance with animal protocols approved by the Harvard Medical Area Standing Committee on Animals or BWH IACUC.
# Fluorescence-activated cell sorting of innate lymphoid cells. After dissociation, single cell suspensions were incubated with CD90.2 MicroBeads (Miltenyi Biotec) on ice and enriched for CD90.2^+ cells by magnetic separation using LS columns according to the manufacturer's protocol. CD90.2^+ lung cells were then stained on ice with antibodies for sorting. ILCs were defined as 7AAD^− CD45^+ CD90.2^+ CD127^+ Lineage (CD11b, CD11c, CD19, NK1.1, […], CD4, CD8a, TCRβ, TCRγδ)^− cells and sorted on a BD FACS Aria (BD Biosciences).
# For full-length scRNA-Seq, single ILCs were sorted into 96-well plates containing 5 ul TCL Buffer (QIAGEN) with 1% 2-Mercaptoethanol, centrifuged and frozen at −80° C. SMART-Seq2 protocol was carried out as previously described^23 with minor modifications in the reverse transcription step. cDNA was amplified with 22 cycles and fragmented with one-eighth of the standard Illumina NexteraXT reaction volume. Single-cell libraries were pooled and paired-end sequenced (38 bp×2) with a 75 cycle Nextseq 500 high output V2 kit.
# Analysis of SMART-Seq2 plate-based scRNA-Seq data. Reads were aligned to mm10 using Kallisto (Bray, N. L., Pimentel, H., Meisted, P. & Pachter, L. Near-optimal probabilistic RNA-seq quantification. Nat Biotechnol 134, 525-527, doi:10.1038/nbt.3519 (2016)) quant, version 0.42.3. The R package tximport (Soneson, C., Love, M. I. & Robinson, M. D. Differential analyses for RNA-seq: transcript-level estimates improve gene-level inferences [version 2; referees: 2 approved]. F1000Research 4, doi:10.12688/f1000research.7563.2 (2016)), version 1.2.0, was used to convert the output to gene counts and traditional TPM values. Because of the variability in read counts per cell across plates, even from the same condition, as well as in the number of genes per cell across conditions, QC was performed for each of eight plates individually in order to remove cells that were outliers with respect to either measure. Out of 752 cells, 606 cells met QC criteria (234 from control, 152 from IL-25 treated mice, and 220 from IL-33 treated mice), and the number of genes per cell in this set ranged from 1,625 to 6,375. Genes that were not expressed with log(TPM)>2.5 in at least two cells were removed from further analysis. Subsequent analysis proceeded analogously to the droplet-based RNA-seq analysis, with parameter settings that reflected both the wider dynamic range of expression and much smaller cell numbers. The minimum ILC signature score required in ILC type assignment was 0.3. Variable genes were identified by running MeanVarPlot with x.low.cutoff=0.1, y.cutoff=1.5, and x.high.cutoff=10, resulting in a set of 519 genes. […]
molecule,measurement,value
"IL25 (protein, UniProt Q8VHH8 17-169, looked up) Interleukin-25: VSLRIQEGCSHLPSCCPSKEQEPPEEWLKWSSASVSPPEPLSHTHHAESCRASKDGPLNSRAISPWSYELDRDLNRVPQDLYHARCLCPHCVSLQTGSHMDPLGNSVPLYHNQTVFYRRPCHGEEGTHRRYCLERRLYRVSLACVCVRPRVMA",Med16 expression coeff,−0.61
same,Mfsd1 expression coeff,1.25
same,Mgat1 expression coeff,1.24
same,Mgat5 expression coeff,1.02
same,Mier3 expression coeff,−0.901
same,Mkl2 expression coeff,−1.12
same,Mlec expression coeff,0.715
same,Morc3 expression coeff,0.662
same,Mov10 expression coeff,1.08
same,Mplkip expression coeff,−0.607
same,Mrp63 expression coeff,1.09
same,Mrpl40 expression coeff,−0.837
same,Mrpl52 expression coeff,0.158
same,Mrpl53 expression coeff,−1.87
same,Mrps18a expression coeff,−1.24
same,Ms4a4b expression coeff,3.49
same,Ms4a6b expression coeff,3.22
same,Mtfmt expression coeff,−2.15
same,Mxd1 expression coeff,0.448
same,Mybbp1a expression coeff,−0.514
same,Myg1 expression coeff,−1.33
same,Myo1f expression coeff,0.897
same,Myo1g expression coeff,0.257
same,Naa60 expression coeff,0.241
same,Nbn expression coeff,−0.499
same,Ndufaf3 expression coeff,1.45
same,Neu3 expression coeff,−2.64
same,Nfil3 expression coeff,2.04
same,Nipal1 expression coeff,1.61
same,Nlrc5 expression coeff,0.93
same,Nol6 expression coeff,−1.65
same,Nol9 expression coeff,−0.775
same,Nop56 expression coeff,−0.619
same,Npc2 expression coeff,0.143
same,Npnt expression coeff,0.056
same,Nrip1 expression coeff,0.668
same,Nsmaf expression coeff,1.41
same,Oas1a expression coeff,0.0294
same,Ogfr expression coeff,0.578
same,Omd expression coeff,−1.12
same,Parp3 expression coeff,0.335
same,Parp10 expression coeff,0.371
same,Parp14 expression coeff,0.934
same,Paxip1 expression coeff,−1.15
same,Pdcd1 expression coeff,1.04
same,Pde4b expression coeff,0.735
same,Per1 expression coeff,−0.785
same,Pfas expression coeff,−0.546
same,Phc3 expression coeff,0.476
same,Phf11a expression coeff,1.52
same,Phf11b expression coeff,1.38
same,Picalm expression coeff,1.79
same,Pigv expression coeff,−2.73
same,Pin4 expression coeff,0.928
same,Plac8 expression coeff,0.268
same,Plekha5 expression coeff,−1.01
same,Plxdc2 expression coeff,−0.906
same,Pml expression coeff,1.04
same,Ppif expression coeff,−1.14
same,Ppp1r15a expression coeff,0.186
same,Pydc4 expression coeff,1.52
same,Pyhin1 expression coeff,0.623
same,Rab7l1 expression coeff,1.18
same,Rab8b expression coeff,1.5
same,Rab33b expression coeff,−1.3
same,Rdh1 expression coeff,−2.49
same,Rdh13 expression coeff,−1.37
same,Rilpl2 expression coeff,1.4
same,Rnf125 expression coeff,1.65
same,Rtp4 expression coeff,0.866
same,Samd9l expression coeff,0.773
same,Sbno2 expression coeff,1.09
same,Sdc4 expression coeff,0.206
same,Sdccag3 expression coeff,0.312
same,Sema4a expression coeff,−0.348
same,Sema4d expression coeff,0.548
same,Sesn3 expression coeff,0.328
same,Shank2 expression coeff,−3.19
same,Sipa1 expression coeff,1.56
same,Slc25a24 expression coeff,0.607
same,Slc44a2 expression coeff,0.294
same,Slfn2 expression coeff,0.267
same,Smn1 expression coeff,−1.53
same,Sntb1 expression coeff,1.29
same,Soat1 expression coeff,0.339
same,Socs1 expression coeff,−1.36
same,Socs2 expression coeff,−0.923
same,Socs3 expression coeff,1.02
same,Sp100 expression coeff,0.451
same,Sptssa expression coeff,−0.974
same,Ssr3 expression coeff,0.609
same,St3gal6 expression coeff,−0.764
same,Stab1 expression coeff,1.24
same,Stat1 expression coeff,1.88
same,Syt11 expression coeff,0.291
same,Taf1d expression coeff,1.28
same,Tango6 expression coeff,−1.32
same,Tap1 expression coeff,0.561
same,Tap2 expression coeff,0.406
same,Tet3 expression coeff,1.62
same,Tmem33 expression coeff,1.18
same,Tmem176a expression coeff,−0.146
same,Tmem176b expression coeff,−0.422
same,Tmem209 expression coeff,−0.847
same,Tmem229b expression coeff,0.199
same,Tnfrsf18 expression coeff,−1.25
same,Tnfsf10 expression coeff,−1.18
same,Tpm4 expression coeff,0.311
same,Tradd expression coeff,0.964
same,Trafd1 expression coeff,0.993
same,Trim12c expression coeff,0.974
same,Trim30a expression coeff,1.17
same,Trim34a expression coeff,0.632
same,Trim30d expression coeff,0.527
same,Trip13 expression coeff,−1.91
same,Trp53inp1 expression coeff,1.28
same,Ttc19 expression coeff,0.891
same,Ttc39b expression coeff,0.546
same,Ube2h expression coeff,0.767
same,Usp18 expression coeff,1.1
same,Usp36 expression coeff,−0.645
same,Vdr expression coeff,−0.748
same,Vmp1 expression coeff,1.49
same,Xrcc3 expression coeff,−1.4
same,Zbp1 expression coeff,0.971
same,Zc3h12a expression coeff,−1.14
same,Zcchc10 expression coeff,−1.82
same,Zfand6 expression coeff,0.659
same,Zfc3h1 expression coeff,0.466
same,Zfp110 expression coeff,−0.396
same,Zfp825 expression coeff,−1.4
